The text below walks through data of paper PMC5119734.

Assay [1] addresses Group B Streptococcus glyceraldehyde 3-phosphate dehydrogenase, wild type (Streptococcus agalactiae (Group B Streptococcus)). Nature of the assay: SEC; Superdex 200 in 25 mM Hepes, 100 mM NaCl, 5 mM beta-mercaptoethanol, pH 7.35. A general note: Size exclusion chromatography separates by hydrodynamic size, large species first.
Assay [2] shares this target. Nature of the assay: crystal structure; hanging drop vapor diffusion at 295 K, 20-28% PEG4000, 0.1 M MES pH 6.5; apo, mixed-holo, holo (2 mM NAD) and ternary (2 mM NAD, 11 mM DL-G3H) crystals; four subunits in the asymmetric unit.

Regarding “Group B Streptococcus glyceraldehyde 3-phosphate dehydrogenase, wild type (enzyme)”, the stoichiometry N in assay [1] and in assay [2] was 4 throughout.
